# Measured values published in the DeepSol protein solubility set.
# Experiment: soluble on expression in E. coli; label from the status in PepcDB or PDB records
row,Sequence,soluble on expression in E. coli
1,MSLTQIFAHRGSKVDCPENTLAAFKKAIQVGCDGIEIDVHRTKDNQLVVIHDEAVDRTSNGSGLVRQLTLKQIRMLDAGSWFHPAYFCEKIPTLEEVLNFLEESGFQGTLNLEIKTNRYPYPKIEKQIAQTMQAKKRSFSHIYSSFNLFSLYVMRKHDPKAELAYLMKFHPFHFWLAQQLKFIKTVHSHSSFYENQVTKRKNKKPFRLWTVNNDDDMKKFFLSGIEGIITDKPEEAVKLRKSLQTKEGHHHHHH,not soluble
2,MTNPTRTKRCGGDVLCGIDNHFQLLLYISENHCQLETKTFFEYFLRIVNKTHDYAILENKKICISHLEHHHHHH,not soluble
3,MTRLLYYEDAYLKEAKAKVLEVKDNALLLDQTIFYPTGGGQPHDRGWINGVEVLDVYKDEEGNVWHVVKELEKFKPGDEVELKLDWEYRYKLMRIHSALHLLENVLDQILGKGNWEVVGSGMTHEKGRLDVGYPENLNAYKEKIIELFNRYVDEGGEIKIWWEGEKRYTQIRDFDPIPCGGTHVKDIREIGHIKKLKRSSIGRGKQRLEIWLEDLEHHHHHH,not soluble
4,MGTFREEGSVSSGTKQEFHTGKLVTTKGDKELLIDNEKVTSGHTTTTRRSCSKVITKTVTNADGRTETTKEVVKSEDGSDCGDADFDWHHTFPSRGNLDDFFHRDKDDFFTRSSHEFDGRTGLAPEFAALGESGSSSSKTSTHSKQFVSSSTTVNRGGSAIESKHF,soluble
5,MGSDKIHHHHHHMIIGMSIARMFSRCTPIPNLSVRYNLDLYHLEFPIMAFIRQEDFIDSIHQALQYIACYHSPDFLAAMHDAWQREPSPAARDAIGQILINSYLCAQGQRPLCQDTGIVVAFVSVGMNVQWQASMSLQEMVDEGVRRAYLDPDNRLRASIVRDPAGKRLNTRDNTPSVVHVDMVPGDTVEIHIAAKGGGSENKSKLAMLEPSDDLIEWVLKTVPEMGAGWCPPGVLGIGIGGTAEKAVLLAKQSLFAPIDIQALRARGPQTRAEELRLEIYEKVNRLGIGAQGLGGLTTVLDVKILEAPTHATSLPVAIIPNCAATRHVHFTLDGTGPARLPAPRLEDWPRVALDASTPMRRVDLGKVTREDVISWQPGEKLLLSGKLLTGRDAAHKRIVDLIARGEPMPEGLDFTNRFIYYVGPVDPVGDEIIGPAGPTTATRMDRFTETMLTQTGLLGMIGKAERGEATVQSIKRHQSVYLIAIGGAAYLISQAIKASRIVAFADLGMEAIYEFTVEDMPVTVAVDSRGHAVHDTGPAEWRPRIANIPIFSE,not soluble
6,MGSDKIHHHHHHMNTPLYKALIQHARRNSHSFHVPGHHNGDVFFDDAKSIFDPLLTIDVTELAGLDDLHHPSGVIKEAQELASQLYGSAESFFLVNGTTVGNLAMILSVCEPGDTILVQRNCHKSVFHAVDLSGAEPVYLAPDVDSAMHVPTHVPLGTIKEALEAYPDAKGLVLTNPTYYGHSADLTEIITEAHHYGIPVLVDEAHGAHFILGEPFPVSALKMGADIVVQSAHKTLPAMTMGSYLHLNSSCRINRDRVAEYLNRLQSSSPSYPIMASLDIARAYVQHIIEEQKLSDILQRIETLKQTFDSLTNAEAVNPANPLIITDPLKLTIRSKRGHSGYTLQSILERANIFTELADENQVLLVLPLGGKRRINAEIIRSIDEEIEKTPPDQTFVSAEWGVQPVTVLPYPKKVLHSFKKEYVSFEEAAGRLNAEDIIPYPPGIPMIMAGERITKESVQKLSRLISMKTHVQGNMKIKEKQLLVYIEEEKS,not soluble
7,MGHHHHHHSHMLTKFETKSARVKGLSFHPKRPWILTSLHNGVIQLWDYRMCTLIDKFDEHDGPVRGIDFHKQQPLFVSGGDDYKIKVWNYKLRRCLFTLLGHLDYIRTTFFHHEYPWILSASDDQTIRVWNWQSRTCVCVLTGHNHYVMCAQFHPTEDLVVSASLDQTVRVWDISGLRKKNLSPGAVESDVRGITGVDLFGTTDAVVKHVLEGHDRGVNWAAFHPTMPLIVSGADDRQVKIWRMNESKAWEVDTCRGHYNNVSCAVFHPRQELILSNSEDKSIRVWDMSKRTGVQTFRRDHDRFWVLAAHPNLNLFAAGHDGGMIVFKLERERPA,not soluble
8,AETVESCLAKSHTENSFTNVWKDDKTLDRYANYEGCLWNATGVVVCTGDETQCYGTWVPIGLAIPENEGGGSEGGGSEGGGSEGGGDDIFGELSSGKNAPKTGGGAKGNNASPAGSGNTKNNGASGADINNYAGQIKSAIESKFYDASSYAGKTCTLRIKLAPDGMLLDIKPEGGDPALCQAALAAAKLAKIPKPPSQAVYEVFKNAPLDFKPAAAHHHHHH,soluble
9,MGHHHHHHENLYFQSHLYFQSHMTDCEFGYIYRLAQDYLQCVLQIPQPGSGPSKTSRVLQNVAFSVQKEVEKNLKSCLDNVNVVSVDTARTLFNQVMEKEFEDGIINWGRIVTIFAFEGILIKKLLRQQIAPDVDTYKEISYFVAEFIMNNTGEWIRQNGGWENGFVKKFEPK,soluble
10,GPGSMTTLVLCDGSEGSLRSIEVACAGNATPTSSMPSQEGSLLLLHVWDTPATRTSVLHPSVGAEGMYTPRRSVSSAAAAAAQTSADAGGHGGSSMPCADVLTTTLQYIHTNKYLKNKLHYTVETTCASTVFARDNTDHSVLSEAGAAPAGGTAASQAAHGRAGQGQKRASCSAGGAGSARRRSDRRPSQRQIDTAAEISAGSSNNTGDGTAPERQEAPVSIPENEKRAMAVVKYATARAAHHHVTAVLLGVGQRQDGKVCTVGAVAQGVLLELRSLYPLYYVKKDGVKWRPALSTTTTTTAATPRRFTIVVAVPADARWESATAAETRSGNEEAAAQTTASIETPSVAPPQVPIHVQEAVAATVQYVQTRCMRLHAALQVEQITFAVIATSSSQDGNSITEPDRGENGGHVAAGPDASGGKDGSTWISPLEAYKRHLESLPFVECKSIPPANAAAPLLSPVNRINPAAVGETGGIEQHLPEDGAAMMCVEGSATGAPAPRGAASPVAVCVLKASKKNPLLSLDSEPEVALPQIIKQVGSLKPEVLVMPKSLVPESLQLALLATSNPHCIVLPF,soluble
11,MPDNLSAIFGTILDYAEEVAAGTSNENDERPPRTSLTKKQQKAVSILRNFSTNDQKQEISFQELSQNVLDDWDISNIKSSSVQQLVELLNLPRVQGVLWAAQEISAGRFAPQLPDVPFEVDEDDGVAVKIVRIVRRGEPLGATIKCERGKVYVARIMANGVADRSGCIQEGDRVLEVNGITVADKEPREIVKLLDKCDNGIITFKLIPAEINQKLKQKKSSHRYARALFDYDPWQDKRHPCPEAAISFRGGDILEILDEKDQYWWQTRKIGFGALARRKESHDDENRDDSKKVGLVPSEWLQCQSEIPENGIDTSDDFQSFLENHKGRFYESVFRWRNKKKRRRVVVLLGAPGVGRNEIRRQFFKVFADRFTNAIPHTSRPQRPNESDGVNYYFTSRSEMERMIERKEMLEYGEFRDNLYGTALKSVRKASEKGTVLLTPHPLAIENIRTWEFAPIVIFVQPPEFGEFKHTREVYRSQTTRSHSAASSSNISQNTAATSAARAFSDVEIRQIIDNSAQMEQKYRGYCDAIIRNVDLDTTMNELTGLIYQLESKATWMPMKWLDDIGE,not soluble
12,MGSVITKETVLQENIYLKKLSGLEPVDDYDPFWNKLLSFSLKFDDDDEDTRIALESALDDHLQCLMYNTQTTGNFAAFIRLFLRRATELKTSEQCENKIYLWQTSNALLILRYIARFLTQRMTEKEFVRIFAKSHESTETESSSTSSSSDEEDDDEQKSENENNNGATKYIPIVFQNTAEEFTYELVSILINISVNETTLAIHVEAVRCLLTLLSSQLYNESIVNTSIVFRFFIDGSCAKHAASLTKTLLLNYLIHNSEYHMTVQKPQESIVFGLASSMWSMVQMATGIDSAEEEKKPPLTLGNLSILLLLNLSCHQPLNSSNPFKETLALFQNAQEVSTLPTQIVSFKIDYNGLYERLCATAGQEPPMLLLYMLLQANSGFRNYVLSRINLENLVVPVLRILHDGVATSNNSHHVYLALIVALILSEDDIFCKIIHETMIKDLGWLDSDFSVREISLGGLTTLVLVRAIQKNALKTRDRYLHTNCLAALANMSAFFKNLAPIVCQRLISLLDLLTKRHAKMVDHMRVSSQNDVADGQPINFHDDITALEEGIRTLLEIINSALCGGLRHNSHLIYNLLYHRALFDAYVQHPMFQDLLVNIAAVISHFSSKVIHVPAGDGSTMLQIIEKEANIWPTDRLAKFPELKFRYVEDEYTVDFFVPYVWRLSVQHSGIYFETSRIKIFNAQSIA,not soluble
13,MGSDKIHHHHHHMQSNLVMFPIVEVVRPGTQVKETNSTDYEGAEQQFLLLLATEDLDDNLDRQAAIVSDFEQAVSRAINGAYKRECQDDLAHRFLQRILYRINRLNLFWFDDLRQYTNERSLYLSSCRNQIEAAWQKWELAQVDVAAIQKLDVKQALIDRADADLDPPLSAASRYIREEMSEAGYRQLLAIGSFDGLVEGSRLSRILGGAANEVQCTLVRVLLEEYGNGRLSRKHSTFFAQMLAEFGMNTTPEAYFDLVPWEVLACANHNFLLTERRRYYLRYSGGLTYFEVAGPAAYRNYLAAAQRLGLSNAAMGYWELHIREDERHGRWMLDDVALPLAQRYPDDAWELVLGYDQEKLMGDRAAEAVVRSTRQAESIN,not soluble
14,MGHHHHHHSHCDKCEGRGGKKGAVECCPNCRGTGMQIRIHQIGPGMVQQIQSVCMECQGHGERISPKDRCKSCNGR,soluble
15,MGSDKIHHHHHHMRMTTDKKQGKSRELDLFITDLNGNLRGKRLPASGLKKLRKEGLKLPLSVVGFDFWGADVLDNGLVFETGDSDGVCMPVSQEPIPVPWSEAPRDQMLAMMFNPDGTPFGADPRQVLNRMVDRFSAKGLTPVLATELEFYLMDAESESVQRPIPPALADGKGRRLANAEGYSVEEMDGFEAFFADIREACQGQGIGADTIIAEMGPGQFEVNLNHVADPLNAGDQAILFKRLVRGVSRRHGYAATFMAKPYVEESGNGFHTHFSLLDRDGNNVFDDGTEQGSDLLRHAIAGMMQLMPESMLVFAPHLNSYRRFMPGAHAPTHASWGYENRTVALRVPESPNLARRIEHRVAGADANPYLVLASILAGALHGMENALEPDAPVEGDAYAEESPRYPLPCEWQDAIARFEQSEILREYLGEEFVRVYAQAKRQERRRLNERISDVEYEAYLGLL,not soluble
16,MGSDKIHHHHHHASPGPGEIANTQARHIATFFPGRMTGSPAEMLSADYLRQQFTQMGYQSDIRTFNSRFIYTTKDNRKNWHNVTGSTVIAAHEGRVPQQIIIMAHLDTYAPQSDADVDANLGGLTLQGMDDNAAGLGVMLELAARLKDIPTHYGIRFIATSGEEEGKLGAENLLKRMSDAEKKNTLLVINLDNLIVGDKLYFNSGKNTPEAVRTLTRDRALAIARRYGIAANTNPGRNPSYPKGTGCCNDAEVFDKAGISVLSVEATNWNLGKKDGYQQRVKNASFPNGNSWHDVRLDNQQHIDKALPGRIERRSRDVVRIMLPLVKELAKAEKTS,not soluble
17,MDEEPERTKRWEGGYERTWEILKEDESGSLKATIEDILFKAKRKRVFEHHGQVRLGMMRHLYVVVDGSRTMEDQDLKPNRLTCTLKLLEYFVEEYFDQNPISQIGIIVTKSKRAEKLTELSGNPRKHITSLKKAVDMTCHGEPSLYNSLSIAMQTLKHMPGHTSREVLIIFSSLTTCDPSNIYDLIKTLKAAKIRVSVIGLSAEVRVCTVLARETGGTYHVILDESHYKELLTHHVSPPPASSSSECSLIRMGFPQHTIASLSDQDAKPSFSMAHLDGNTEPGLTLGGYFCPQCRAKYCELPVECKICGLTLVSAPHLARSYHHLFPLDAFQEIPLEEYNGERFCYGCQGELKDQHVYVCAVCQNVFCVDCDVFVHDSLHCCPGCIHKIPAPSGV,soluble
18,MGSDKIHHHHHHMIRSLWTAKTGLESQQVKLDVISNNLSNVSTNGFKRSRPVFEDLLYQNVRQPGAQASAVDTLPSGLQVGTGVRPVATERLHTQGGLQNTDNSKDLAINGQGFFAVQMPDGTSAYTRDGSFQIDENGQMVTAGGYPLDPPIVIPENALSVSISQDGVVSVTQPGDTAAQEVGQLTLSKFINPAGLQSMGENLYQETDASGPRNDLIPGMEGAGRLYQGYVETSNVNVVEEMVSMIETQRAYEINSKAVETSDQMLSRLTQL,not soluble
